Data taken from patent US20260263580A1.

Experiments:
[1] = biological target: DBNcc-HI E1/E2 complexes from lysates of HEK293 cells transfected with an E1/E2 expression plasmid (hepatitis C virus genotype 3a, strain DBNcc-HI) (UniProt Q81258); test: ELISA on lectin-captured E1/E2 complexes, negative control (FIG. 11)
[2] = biological target: J6cc-HI E1/E2 complexes from lysates of HEK293 cells transfected with an E1/E2 expression plasmid (hepatitis C virus genotype 2a, strain J6cc-HI) (UniProt P26660); test: as above
[3] = biological target: TNcc-HI E1/E2 complexes from lysates of HEK293 cells transfected with an E1/E2 expression plasmid (hepatitis C virus genotype 1a, strain TNcc-HI) (UniProt P26664); test: as above
[4] = biological target: DBNcc-HI E1/E2 complexes from lysates of HEK293 cells transfected with an E1/E2 expression plasmid (hepatitis C virus genotype 3a, strain DBNcc-HI) (UniProt Q81258); test: ELISA on lectin-captured E1/E2 complexes, negative control (FIG. 12)
[5] = biological target: J6cc-HI E1/E2 complexes from lysates of HEK293 cells transfected with an E1/E2 expression plasmid (hepatitis C virus genotype 2a, strain J6cc-HI) (UniProt P26660); test: as above
[6] = biological target: TNcc-HI E1/E2 complexes from lysates of HEK293 cells transfected with an E1/E2 expression plasmid (hepatitis C virus genotype 1a, strain TNcc-HI) (UniProt P26664); test: as above
[7] = biological target: DBNcc-HI E1/E2 complexes from lysates of HEK293 cells transfected with an E1/E2 expression plasmid (hepatitis C virus genotype 3a, strain DBNcc-HI) (UniProt Q81258); test: ELISA on lectin-captured E1/E2 complexes, negative control (FIG. 13)
[8] = biological target: J6cc-HI E1/E2 complexes from lysates of HEK293 cells transfected with an E1/E2 expression plasmid (hepatitis C virus genotype 2a, strain J6cc-HI) (UniProt P26660); test: as above
[9] = biological target: TNcc-HI E1/E2 complexes from lysates of HEK293 cells transfected with an E1/E2 expression plasmid (hepatitis C virus genotype 1a, strain TNcc-HI) (UniProt P26664); test: as above
[10] = biological target: envelope proteins E1/E2 of high-yield genotype 1a recombinant virus TNcc-HI (hepatitis C virus genotype 1a, strain TNcc-HI) (UniProt P26664); test: cell-based or functional assay
[11] = biological target: envelope proteins E1/E2 of high-yield genotype 2a recombinant virus J6cc-HI (hepatitis C virus genotype 2a, strain J6cc-HI) (UniProt P26660); test: cell-based or functional assay
[12] = biological target: envelope proteins E1/E2 of high-yield genotype 3a recombinant virus DBNcc-HI (hepatitis C virus genotype 3a, strain DBNcc-HI) (UniProt Q81258); test: cell-based or functional assay
[13] = biological target: envelope proteins E1/E2 of the genotype 1a HCV seed stock derived from TNcc-PP-18 (hepatitis C virus genotype 1a, strain TNcc) (UniProt P26664); test: cell-based or functional assay
[14] = biological target: envelope proteins E1/E2 of the original genotype 3a recombinant virus DBN3acc (hepatitis C virus genotype 3a, strain DBN3acc) (UniProt Q81258); test: cell-based or functional assay

Substance | OD at 450 nm [1] [OD] | OD at 450 nm [2] [OD] | OD at 450 nm [3] [OD] | OD at 450 nm [4] [OD] | OD at 450 nm [5] [OD] | OD at 450 nm [6] [OD] | OD at 450 nm [7] [OD] | OD at 450 nm [8] [OD] | OD at 450 nm [9] [OD] | fold increased neutralization sensitivity against 1a(TN) [10] [fold] | fold increased neutralization sensitivity against 2a(J6) [11] [fold] | fold increased neutralization sensitivity against 3a(DBN) [12] [fold] | fold increased neutralization sensitivity against 1a(TN) [13] [fold] | fold increased neutralization sensitivity against 3a(DBN) [14] [fold]
ECL sheep anti-mouse IgG horseradish-peroxidase linked whole antibody (GE Healthcare) | 0.05 | 0.05 | 0.05 | 0.05 | 0.05 | 0.05 | 0.05 | 0.05 | 0.05 |  |  |  |  | 
human monoclonal antibody AR3A |  |  |  |  |  |  |  |  |  | 300 | 440 | 1250 | 3 | 167
human monoclonal antibody AR4A |  |  |  |  |  |  |  |  |  | 2400 | 12 | 220 | 15 | 22
